Experimental data from article PMC5683673.

Target: purified recombinant human dimeric DPP-4 protein (dipeptidyl peptidase-4) (human), P27487
Test: SEC
Conditions: remark: other sources report otherwise

B1: purified recombinant human dimeric DPP-4 protein (dipeptidyl peptidase-4), P27487 29-766 (enzyme)
chain: NKGTDDATADSRKTYTLTDYLKNTYRLKLYSLRWISDHEYLYKQENNILVFNAEYGNSSVFLENSTFDEFGHSINDYSISPDGQFILLEYNYVKQWRHSYTASYDIYDLNKRQLITEERIPNNTQWVTWSPVGHKLAYVWNNDIYVKIEPNLPSYRITWTGKEDIIYNGITDWVYEEEVFSAYSALWWSPNGTFLAYAQFNDTEVPLIEYSFYSDESLQYPKTVRVPYPKAGAVNPTVKFFVVNTDSLSSVTNATSIQITAPASMLIGDHYLCDVTWATQERISLQWLRRIQNYSVMDICDYDESSGRWNCLVARQHIEMSTTGWVGRFRPSEPHFTLDGNSFYKIISNEEGYRHICYFQIDKKDCTFITKGTWEVIGIEALTSDYLYYISNEYKGMPGGRNLYKIQLSDYTKVTCLSCELNPERCQYYSVSFSKEAKYYQLRCSGPGLPLYTLHSSVNDKGLRVLEDNSALDKMLQNVQMPSKKLDFIILNETKFWYQMILPPHFDKSKKYPLLLDVYAGPCSQKADTVFRLNWATYLASTENIIVASFDGRGSGYQGDKIMHAINRRLGTFEVEDQIEAARQFSKMGFVDNKRIAIWGWSYGGYVTSMVLGSGSGVFKCGIAVAPVSRWEYYDSVYTERYMGLPTPEDNLDHYRNSTVMSRAENFKQVEYLLIHGTADDNVHFQQSAQISKALVDVGVDFQAMWYTDEDHGIASSTAHQHIYTHMSHFIKQCFSLP
In the case of B1, the percent present as dimer is reported as 85%.
